According to US11427805B2, “Methods of producing human foregut endoderm cells expressing PDX1 from human definitive endoderm” (ViaCyte, Inc., priority 2005, dated 2022):

Legend:
Type in all cases: cell-based, human
hESCs [1] = experiment: AFP antibody-labeled cell number by flow cytometry; conditions: FIGS. 9A-B
Description: As a further evidence of the specificity of the SOX17^hi/AFP^lo/TM^lo/SPARC^lo marker profile as predictive of definitive endoderm, SOX17 and AFP gene expression was quantitatively compared to the relative number of antibody labeled cells.

hESCs [2] = experiment: Antibody labeling (immunocytochemistry) of differentiating hESCs for SOX17 and AFP
Description: However, AFP and SOX7 are not expressed in definitive endoderm cells at levels detectable by ICC, and thus, they can be employed as negative markers for bonifide definitive endoderm cells. It was shown that SOX17 antibody labels populations of cells that exist as discrete groupings of cells or are intermingled with AFP positive cells. […] Similarly, since parietal endoderm has been reported to express SOX17, antibody co-labeling with SOX17 together with the parietal markers SPARC and/or Thrombomodulin (TM) can be used to identify the SOX17^+ cells that are parietal endoderm. As shown in FIGS. 6A-C, Thrombomodulin and SOX17 co-labeled parietal endoderm cells were produced by random differentiation of hES cells.
With the SOX17 antibody and Q-PCR tools described above we have explored a number of procedures capable of efficiently programming hESCs to become SOX17^hi/AFP^lo/SPARC/TM^lo definitive endoderm cells. We applied a variety of differentiation protocols aimed at increasing the number and proliferative capacity of these cells as measured at the population level by Q-PCR for SOX17 gene expression and at the level of individual cells by antibody labeling of SOX17 protein.
To determine the effect of TGFβ factor treatment at the individual cell level, a time course of TGFβ factor addition was examined using SOX17 antibody labeling. […]

definitive endoderm = experiment: Dorsal / ventral / PDX1-negative foregut endoderm differentiation from definitive endoderm (marker gene expression); conditions: first four days of differentiation (FIGS. 51A, 51B)
Experimental: Definitive endoderm was produced from undifferentiated hESCs using a three or five day protocol in which activin A was provided to the culture medium at a concentration of 100 ng/ml each day. For both dorsal and ventral differentiation, the medium composition for the first five days was as follows: Day 1—RPMI+0% fetal bovine serum (FBS), Day 2—RPMI+0.2% PBS, Day 3—RPMI+2.0% FBS, Day 4—RPMI+2.0% FBS and Day 5—RPMI+2.0% FBS. For the ventral differentiation, definitive endoderm was produced for 3 days in activin A at 100 ng/ml and then exposed to BMP4 at 3 ng/ml and FGF10 at 50 ng/ml. […] For the dorsal differentiation procedure, definitive endoderm was produced for 5 days in activin A at 100 ng/ml and then exposed to retinoic acid (RA) at 2 μM and activin A at 25 ng/ml in CMRL medium containing B27 supplement (1:200).
Four separate conditions were used to treat hESCs that result in varying proportions of differentiation to definitive endoderm. All four conditions utilized RPMI supplemented with 0% FBS on the first day, 0.2% FBS on second day, and 2% FBS on days 3 and 4. The four conditions were as follows: (a) BMP4 at 100 ng/mL with SU5402 at 5 μM; (b) no exogenous growth factors; (c) activin A at 15 ng/mL; and (d) activin A at 100 ng/ml. […] All cultures were then incubated for 2 days with BMP4 at 3 ng/mL, FGF10 at 50 ng/ml and KAAD-cyclopamine at 0.5 μM in a base medium of 2% FBS in RPMI followed by 6 days with BMP4 at 3 ng/mL, FGF10 at 50 ng/ml and KAAD-cyclopamine at 0.5 μM in a base medium composed of CMRL with 1:200 dilution of B27 extract.
Definitive endoderm was produced by exposing undifferentiated hESCs to activin at 100 ng/mL in RPMI base medium supplemented with 0%, 0.2%, and 2% FBS on days 1 through 3, respectively. After 3 days of activin A treatment, the cultures were switched to a base medium composed of RPMI containing 2% FBS and maintained under one of the following conditions: (a) BMP4 at 3 ng/ml with FGF10 at 50 ng/ml and KAAD-cyclopamine at 0.5 μM; (b) FGF10 at 50 ng/ml and KAAD-cyclopamine at 0.5 μM; or (c-e) no exogenous factors. After two days, the base medium was changed to CMRL plus B27 supplement (1:200) and cells were maintained according to conditions (a-c) above. Alternatively, cells were maintained with no exogenous factors in RPMI with B27 supplement (1:200) (condition (d)) or RPMI with 2% FBS (condition (e)). The same factor treatment conditions were maintained for 8 more days of differentiation.
Human embryonic stem cells were differentiated for 7 days via a 2-step protocol to achieve PDX1 cells. The first step comprised 5 days differentiation in activin A (100 ng/ml) to robustly produce DE (D'Amour, K., et al., Nature Biotechnology 23, 1534-1541, (2005)). […]

CXCR4 gene expression = experiment: Q-PCR of CXCR4 gene expression in differentiating hESCs
Experimental: In these experiments, hESCs were differentiated by growing in RPMI medium (Invitrogen, Carlsbad, Calif.; cat #61870-036) supplemented with 0.5%, 2.0% or 10% FBS and either with or without 100 ng/ml activin A for 6 days. In addition, a gradient of FBS ranging from 0.5% to 2.0% over the first three days of differentiation was also used in conjunction with 100 ng/ml of activin A. After the 6 days, replicate samples were collected from each culture condition and analyzed for relative gene expression by real-time quantitative PCR. The remaining cells were fixed for immunofluorescent detection of SOX17 protein.
hESCs were differentiated in RPMI media supplemented with 0.5%-2% FBS (increased from 0.5% to 1.0% to 2.0% over the first 3 days of differentiation) and either 0, 10, or 100 ng/ml of activin A. After 7 days of differentiation the cells were dissociated in PBS without Ca^2+/Mg^2+ containing 2% FBS and 2 mM (EDTA) for 5 minutes at room temperature. The cells were filtered through 35 μm nylon filters, counted and pelleted. […] Cells were resuspended at 5×10^6 cells/ml in buffer and analyzed and sorted using a FACS Vantage (Beckton Dickenson) by the staff at the flow cytometry core facility (The Scripps Research Institute). Cells were collected directly into RLT lysis buffer (Qiagen) for subsequent isolation of total RNA for gene expression analysis by real-time quantitative PCR.

AFP gene expression = experiment: Q-PCR of AFP gene expression in differentiating hESCs
Experimental: In the following experiments, real-time quantitative RT-PCR (Q-PCR) was the primary assay used for screening the effects of various treatments on hESC differentiation. In particular, real-time measurements of gene expression were analyzed for multiple marker genes at multiple time points by Q-PCR. Marker genes characteristic of the desired as well as undesired cell types were evaluated to gain a better understanding of the overall dynamics of the cellular populations. The strength of Q-PCR analysis includes its extreme sensitivity and relative ease of developing the necessary markers, as the genome sequence is readily available. Furthermore, the extremely high sensitivity of Q-PCR permits detection of gene expression from a relatively small number of cells within a much larger population. In addition, the ability to detect very low levels of gene expression provides indications for “differentiation bias” within the population. The bias towards a particular differentiation pathway, prior to the overt differentiation of those cellular phenotypes, is unrecognizable using immunocytochemical techniques. […] Additionally, Q-PCR provides a mechanism by which to evaluate the success of a differentiation protocol in a quantitative format at semi-high throughput scales of analysis.
To generate PCR template, total RNA was isolated using RNeasy (Qiagen) and quantitated using RiboGreen (Molecular Probes). Reverse transcription from 350-500 ng of total RNA was carried out using the iScript reverse transcriptase kit (BioRad), which contains a mix of oligo-dT and random primers. […] Fluorescence data was collected during the last 15 seconds of each extension phase. A three point, 10-fold dilution series was used to generate the standard curve for each run and cycle thresholds (Ct's) were converted to quantitative values based on this standard curve. The quantitated values for each sample were normalized to housekeeping gene performance and then average and standard deviations were calculated for triplicate samples. […]

B1: activin A (protein, UniProt P08476 311-426, looked up)
Inhibin beta A chain: GLECDGKVNICCKKQFFVSFKDIGWNDWIIAPSGYHANYCEGECPSHIAGTSGSSLSFHSTVINHYRMRGHSPFANLKSCCVPTKLRPMSMLYYDDGQNIIKKDIQNMIVEECGCS
modifications: Inhibin beta A chain
In the case of B1, the “decrease in AFP antibody-labeled cell number as measured by flow cytometry” value (hESCs [1]) is reported as “approximately 7 fold”, the “dose dependence of SOX17+ cell number” value (hESCs [2]; FIG. 22) is reported as “dose-dependent increase” and the “difference in SOX17 antibody-labeled cell number” value (hESCs [2]; hESCs treated with activin A vs retinoic acid (FIG. 7B)) is reported as 10 fold. The “definitive endoderm production (CER and SOX17 gene expression)” value (definitive endoderm) was “robust definitive endoderm differentiation”, the “relative levels of CXCR4 gene expression” value (CXCR4 gene expression; 0, 10, or 100 ng/ml, 7 days (FIG. 32)) was “dramatically increased with increasing dose” and the CXCR4 expression (CXCR4 gene expression; 100 ng/ml (A100) vs no exogenous activin A (NF), 6 days (FIG. 26)) was “high”. The “suppression of AFP gene expression in comparison to no treatment” value (AFP gene expression; FIG. 8A) was 6.8 fold, the “difference in AFP gene expression levels, activin A vs random differentiation in 10% FBS” value (AFP gene expression; FIG. 8A legend) was “approximately 7 fold” and the “expression of the visceral endoderm marker AFP” value (AFP gene expression; activin A dose series (FIG. 13A)) was “dose-dependent decrease”.
